Measurements published in PMC12088458.

Columns and labels:
Test in all cases: BioID proximity labelling, biotin pull-down, mass spectrometry
Conditions in all cases: HEK293T, n = 3, over EV-BirA control, read off a plot
SMARCA4 = SMARCA4 (UniProt P51532)
TRRAP = TRRAP (UniProt Q9Y4A5)
SMARCA5 = SMARCA5 (UniProt O60264)
β-catenin = β-catenin (UniProt P35222)
DDX3X = DDX3X (UniProt O00571)
UniProt O00571, sequence (O00571 whole entry): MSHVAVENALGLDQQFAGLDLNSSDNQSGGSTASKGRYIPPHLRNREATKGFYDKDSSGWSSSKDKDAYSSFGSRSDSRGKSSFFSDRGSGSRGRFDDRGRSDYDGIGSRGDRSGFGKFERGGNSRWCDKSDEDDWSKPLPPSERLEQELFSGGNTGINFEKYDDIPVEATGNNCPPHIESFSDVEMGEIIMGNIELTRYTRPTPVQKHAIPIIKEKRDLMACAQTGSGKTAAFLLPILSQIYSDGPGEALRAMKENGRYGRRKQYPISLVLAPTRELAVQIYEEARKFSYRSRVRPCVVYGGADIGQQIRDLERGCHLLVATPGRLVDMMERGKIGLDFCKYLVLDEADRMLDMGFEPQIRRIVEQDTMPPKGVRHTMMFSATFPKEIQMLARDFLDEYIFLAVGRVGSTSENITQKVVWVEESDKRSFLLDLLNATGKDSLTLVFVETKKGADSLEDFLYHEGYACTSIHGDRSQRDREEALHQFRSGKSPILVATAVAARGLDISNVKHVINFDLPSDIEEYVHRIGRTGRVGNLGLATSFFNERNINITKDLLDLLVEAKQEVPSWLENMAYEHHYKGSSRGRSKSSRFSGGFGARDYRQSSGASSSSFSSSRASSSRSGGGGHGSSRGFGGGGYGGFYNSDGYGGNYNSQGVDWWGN

UniProt P51532, sequence (P51532 whole entry): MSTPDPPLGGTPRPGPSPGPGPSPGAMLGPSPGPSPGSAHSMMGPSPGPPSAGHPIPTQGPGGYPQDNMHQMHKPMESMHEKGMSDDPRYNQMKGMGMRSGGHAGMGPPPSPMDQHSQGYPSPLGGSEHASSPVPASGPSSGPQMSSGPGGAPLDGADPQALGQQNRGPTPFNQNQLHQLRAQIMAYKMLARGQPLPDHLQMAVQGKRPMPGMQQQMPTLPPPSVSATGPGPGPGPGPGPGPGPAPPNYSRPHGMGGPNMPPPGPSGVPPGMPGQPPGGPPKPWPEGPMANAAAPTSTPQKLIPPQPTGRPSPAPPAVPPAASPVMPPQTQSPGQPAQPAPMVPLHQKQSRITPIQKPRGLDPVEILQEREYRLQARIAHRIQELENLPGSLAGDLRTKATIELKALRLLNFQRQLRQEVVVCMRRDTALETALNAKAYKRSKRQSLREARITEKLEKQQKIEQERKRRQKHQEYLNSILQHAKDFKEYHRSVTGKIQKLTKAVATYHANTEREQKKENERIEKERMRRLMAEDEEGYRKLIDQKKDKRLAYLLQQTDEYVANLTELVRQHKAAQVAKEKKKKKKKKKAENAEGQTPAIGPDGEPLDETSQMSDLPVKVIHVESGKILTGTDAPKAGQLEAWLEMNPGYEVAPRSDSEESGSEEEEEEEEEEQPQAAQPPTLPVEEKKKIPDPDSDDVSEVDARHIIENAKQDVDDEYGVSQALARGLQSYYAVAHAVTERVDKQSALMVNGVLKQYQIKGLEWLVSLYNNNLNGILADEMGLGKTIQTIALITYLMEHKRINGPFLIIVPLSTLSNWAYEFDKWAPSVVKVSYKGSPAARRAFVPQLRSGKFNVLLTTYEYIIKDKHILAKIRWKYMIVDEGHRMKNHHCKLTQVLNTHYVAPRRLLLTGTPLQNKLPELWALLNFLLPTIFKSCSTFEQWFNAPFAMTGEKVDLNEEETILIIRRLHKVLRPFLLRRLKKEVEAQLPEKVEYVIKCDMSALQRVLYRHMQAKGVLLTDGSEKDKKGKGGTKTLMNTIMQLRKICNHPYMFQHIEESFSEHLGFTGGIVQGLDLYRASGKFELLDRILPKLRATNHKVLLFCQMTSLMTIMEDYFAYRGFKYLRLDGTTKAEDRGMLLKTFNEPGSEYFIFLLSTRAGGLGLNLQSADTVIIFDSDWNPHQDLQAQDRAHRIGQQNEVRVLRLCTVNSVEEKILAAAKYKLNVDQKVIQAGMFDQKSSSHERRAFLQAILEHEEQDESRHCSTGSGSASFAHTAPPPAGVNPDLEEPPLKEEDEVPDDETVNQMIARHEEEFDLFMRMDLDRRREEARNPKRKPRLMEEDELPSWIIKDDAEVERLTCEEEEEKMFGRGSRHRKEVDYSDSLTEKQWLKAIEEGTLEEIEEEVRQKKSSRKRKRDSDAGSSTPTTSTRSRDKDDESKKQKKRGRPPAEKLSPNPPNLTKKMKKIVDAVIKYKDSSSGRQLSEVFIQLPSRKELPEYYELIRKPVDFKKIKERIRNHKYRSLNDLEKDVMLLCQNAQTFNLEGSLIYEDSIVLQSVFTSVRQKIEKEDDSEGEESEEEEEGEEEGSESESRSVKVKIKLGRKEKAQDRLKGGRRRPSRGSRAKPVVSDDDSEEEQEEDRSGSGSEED
UniProt O60264, sequence (O60264 whole entry): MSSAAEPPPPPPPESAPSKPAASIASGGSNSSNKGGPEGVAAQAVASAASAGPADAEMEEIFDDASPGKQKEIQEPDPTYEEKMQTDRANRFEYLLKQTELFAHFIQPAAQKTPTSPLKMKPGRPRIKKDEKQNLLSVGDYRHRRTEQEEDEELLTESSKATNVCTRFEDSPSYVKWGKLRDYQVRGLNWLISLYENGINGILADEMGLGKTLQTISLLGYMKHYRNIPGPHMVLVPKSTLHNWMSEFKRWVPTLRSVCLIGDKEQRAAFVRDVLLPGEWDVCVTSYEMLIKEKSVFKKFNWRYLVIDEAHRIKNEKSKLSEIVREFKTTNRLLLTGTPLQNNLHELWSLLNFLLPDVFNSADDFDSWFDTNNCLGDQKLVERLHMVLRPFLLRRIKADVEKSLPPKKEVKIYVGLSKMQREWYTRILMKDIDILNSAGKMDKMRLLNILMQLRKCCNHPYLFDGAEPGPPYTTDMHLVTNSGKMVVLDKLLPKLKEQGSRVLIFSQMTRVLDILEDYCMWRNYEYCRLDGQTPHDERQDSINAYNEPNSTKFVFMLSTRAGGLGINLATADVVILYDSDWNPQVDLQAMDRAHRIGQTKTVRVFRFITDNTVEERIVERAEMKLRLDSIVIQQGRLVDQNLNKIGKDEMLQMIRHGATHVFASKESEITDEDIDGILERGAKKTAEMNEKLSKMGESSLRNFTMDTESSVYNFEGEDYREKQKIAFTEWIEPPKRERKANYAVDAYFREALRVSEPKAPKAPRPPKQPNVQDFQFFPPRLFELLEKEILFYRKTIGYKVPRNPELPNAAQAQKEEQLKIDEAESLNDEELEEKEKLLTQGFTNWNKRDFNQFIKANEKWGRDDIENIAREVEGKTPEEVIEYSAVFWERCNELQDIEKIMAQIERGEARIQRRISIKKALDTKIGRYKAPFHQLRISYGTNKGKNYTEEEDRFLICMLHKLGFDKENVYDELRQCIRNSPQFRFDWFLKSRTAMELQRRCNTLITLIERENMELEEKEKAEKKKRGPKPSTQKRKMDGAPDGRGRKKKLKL
UniProt P35222, sequence (P35222 whole entry): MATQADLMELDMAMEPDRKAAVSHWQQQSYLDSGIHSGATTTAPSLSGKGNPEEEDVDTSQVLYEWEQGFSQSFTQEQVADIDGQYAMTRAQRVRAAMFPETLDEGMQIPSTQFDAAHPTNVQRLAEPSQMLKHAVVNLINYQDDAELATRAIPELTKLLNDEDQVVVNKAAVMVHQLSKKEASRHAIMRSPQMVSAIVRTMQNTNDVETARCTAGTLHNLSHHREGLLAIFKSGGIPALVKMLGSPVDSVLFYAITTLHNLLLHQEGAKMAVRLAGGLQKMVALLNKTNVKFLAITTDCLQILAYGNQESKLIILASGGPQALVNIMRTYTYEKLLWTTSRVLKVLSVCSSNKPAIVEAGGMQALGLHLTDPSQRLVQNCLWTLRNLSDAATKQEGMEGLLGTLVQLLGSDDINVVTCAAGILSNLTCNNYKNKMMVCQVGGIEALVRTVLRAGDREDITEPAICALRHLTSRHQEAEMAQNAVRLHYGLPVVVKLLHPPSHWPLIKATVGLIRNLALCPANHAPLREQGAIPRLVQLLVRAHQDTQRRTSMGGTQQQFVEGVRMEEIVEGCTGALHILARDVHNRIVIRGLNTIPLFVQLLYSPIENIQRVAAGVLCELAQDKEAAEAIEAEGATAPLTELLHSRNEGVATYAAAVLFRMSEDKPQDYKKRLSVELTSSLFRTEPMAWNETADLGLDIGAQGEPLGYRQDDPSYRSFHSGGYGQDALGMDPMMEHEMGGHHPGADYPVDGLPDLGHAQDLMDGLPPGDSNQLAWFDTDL

Row | other: SaintScore (SMARCA4; WNT-OFF (10 nM LGK974)) | other: SaintScore (SMARCA4; WNT-ON (10 µM CHIR99021)) | other: SaintScore (TRRAP; WNT-OFF (10 nM LGK974)) | other: SaintScore (TRRAP; WNT-ON (10 µM CHIR99021)) | other: SaintScore (SMARCA5; WNT-OFF (10 nM LGK974)) | other: SaintScore (SMARCA5; WNT-ON (10 µM CHIR99021)) | other: SaintScore (β-catenin; WNT-ON (10 µM CHIR99021)) | other: SaintScore (DDX3X; WNT-OFF (10 nM LGK974)) | other: SaintScore (DDX3X; WNT-ON (10 µM CHIR99021)) | other: SaintScore (β-catenin; WNT-OFF (10 nM LGK974)) | Substance
1 | 0 | 0.67 | 0 | 0.67 | 0 | 0.67 | 0.67 | 0.32 | 0.71 |  | TBX3-WT-BirA (from UniProt O15119) NPF del
2 | 1 | 0.93 | 1 | 0.67 | 0.67 | 0.67 | 0.67 | 1 | 0.65 | 0.33 | TBX3-WT-BirA (from UniProt O15119) RRM del
